Measured values from patent US20170306002A1 (UNITED STATES OF AMERICA AS REPESENTED BY THE SECRETARY …, published 2017).

Target: NA of A/Bethesda/NIH107-D31/2009 (pH1N1, H275Y) (influenza A virus …)
Assay: cell-based or functional assay

B1: mAb CD6 (whole IgG) (antibody, V domains shown)
VH: QVKLQESGGGLVQPKGSLKLSCAASGFTFNTYAMNWVRQAPGKGLEWVARIRSKSNNYATFYADSVKDRFTISRDDSQSMLYLQMHNLKTDDTAMYYCVRPSIYYYASGYLDVWGAGTTVTVSS
VL: QIVLSQSPAILSASPGEKVTMTCRTSSSVSYMHWYQQKPGSSPKPWIYATSNLASGVPFRFSGSGSGTSYSLTISRVEAEDAATYYCQQWNSNPPTFGGGTKLEIKR
- IC50, inhibition of NA activity in ELLA (fetuin substrate): 0.029 µg/mL
